Assay [1] addresses NRXβ1 ECD (amino acids 81 to 311), His-tagged, labelled with Alexa Fluor 488 (mouse) (UniProt P0DI97). Put plainly: fluorescence polarisation; 8 nM NRXβ1 ECD–AF488, NL2 or NL2mut titrated 15 nM to 8 μM; 20 mM Hepes pH 7.5, 150 mM NaCl, 1 mM MgCl2, 0.5 mM CaCl2; triplicate; Hill fit with shared slope; apparent. For orientation: Polarisation of emitted light reports the rotation of a fluorescent probe.

In assay [2] the target is Neurexin β1 ECD (UniProt P58400). As to conditions: cited from earlier work.
In assay [3] the target is Neurexin β1 (UniProt P58400). As to conditions: cited from earlier work.
The target in assay [4] is Neurexin β1 (UniProt P58400). As to conditions: cited from earlier work. This is another data set of the same source.
Assay [5] addresses Neurexin β1 ECD (UniProt P58400). As to conditions: cited from earlier work. This is another data set of the same source.
The target in assay [6] is full-length neuroligin 2 (NL2), mouse, without the splice insert at site A (mouse) (UniProt Q69ZK9). Briefly: proteoliposome colocalisation (TIRF microscopy); as a5 at 2x protein: NL2 1:5 and NRXβ1 1:10 protein:lipid (w/w); all detections.
Assay [7] has the same target. The description is as above. The source holds these as a separate data set.
The target is the same in assay [8]. Briefly: cryo-EM structure; NL2 and NRXβ1 purified separately, mixed at one-to-one molar ratio, ~20 μM (monomer) each, on ice 10 min; only the ECDs resolved; Ca2+ at the interface.

Where “and” joins values, the source holds several entries; their conditions need not be identical. Identical values can stand only once. Like-named read-outs stand apart in the source and are kept apart here. Bounds are passed on as bounds.

full-length neuroligin 2 (NL2), mouse, without the splice insert at site A (mouse), sequence (Q69ZK9 other isoform, or with tags, fused parts or gaps): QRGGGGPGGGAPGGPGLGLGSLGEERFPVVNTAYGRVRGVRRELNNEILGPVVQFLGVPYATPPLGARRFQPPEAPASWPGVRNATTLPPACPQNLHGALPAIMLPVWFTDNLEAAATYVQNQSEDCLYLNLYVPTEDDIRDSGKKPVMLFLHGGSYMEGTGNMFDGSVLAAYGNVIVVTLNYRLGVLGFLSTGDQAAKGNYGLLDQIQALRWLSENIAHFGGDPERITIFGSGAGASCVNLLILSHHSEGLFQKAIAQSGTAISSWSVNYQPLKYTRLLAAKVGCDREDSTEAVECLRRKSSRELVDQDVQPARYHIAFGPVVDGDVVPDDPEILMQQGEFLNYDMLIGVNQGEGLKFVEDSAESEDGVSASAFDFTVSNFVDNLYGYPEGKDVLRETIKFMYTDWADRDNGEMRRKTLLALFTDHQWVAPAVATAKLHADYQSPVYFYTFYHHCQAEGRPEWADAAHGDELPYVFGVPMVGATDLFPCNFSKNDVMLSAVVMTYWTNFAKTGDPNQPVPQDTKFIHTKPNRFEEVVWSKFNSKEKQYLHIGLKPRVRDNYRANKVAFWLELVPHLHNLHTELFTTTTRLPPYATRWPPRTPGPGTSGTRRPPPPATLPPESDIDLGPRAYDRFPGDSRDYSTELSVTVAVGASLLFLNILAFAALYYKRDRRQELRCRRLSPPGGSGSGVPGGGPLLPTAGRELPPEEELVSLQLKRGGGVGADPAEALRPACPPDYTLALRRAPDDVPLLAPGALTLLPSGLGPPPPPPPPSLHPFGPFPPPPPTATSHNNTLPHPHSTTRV
Neurexin β1, sequence (P58400 51-396): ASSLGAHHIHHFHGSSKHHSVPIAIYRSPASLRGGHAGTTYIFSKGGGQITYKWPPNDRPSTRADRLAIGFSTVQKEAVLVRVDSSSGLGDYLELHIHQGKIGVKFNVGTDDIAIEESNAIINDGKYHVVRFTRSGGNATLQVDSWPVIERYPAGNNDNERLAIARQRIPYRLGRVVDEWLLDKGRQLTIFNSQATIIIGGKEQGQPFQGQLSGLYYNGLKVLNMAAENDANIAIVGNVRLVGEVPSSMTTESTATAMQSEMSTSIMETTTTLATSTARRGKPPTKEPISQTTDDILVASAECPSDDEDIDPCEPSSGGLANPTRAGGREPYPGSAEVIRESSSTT
Neurexin β1 ECD, sequence (P58400 51-396): as above
Neuroligin 3, sequence (Q9NZ94 38-709): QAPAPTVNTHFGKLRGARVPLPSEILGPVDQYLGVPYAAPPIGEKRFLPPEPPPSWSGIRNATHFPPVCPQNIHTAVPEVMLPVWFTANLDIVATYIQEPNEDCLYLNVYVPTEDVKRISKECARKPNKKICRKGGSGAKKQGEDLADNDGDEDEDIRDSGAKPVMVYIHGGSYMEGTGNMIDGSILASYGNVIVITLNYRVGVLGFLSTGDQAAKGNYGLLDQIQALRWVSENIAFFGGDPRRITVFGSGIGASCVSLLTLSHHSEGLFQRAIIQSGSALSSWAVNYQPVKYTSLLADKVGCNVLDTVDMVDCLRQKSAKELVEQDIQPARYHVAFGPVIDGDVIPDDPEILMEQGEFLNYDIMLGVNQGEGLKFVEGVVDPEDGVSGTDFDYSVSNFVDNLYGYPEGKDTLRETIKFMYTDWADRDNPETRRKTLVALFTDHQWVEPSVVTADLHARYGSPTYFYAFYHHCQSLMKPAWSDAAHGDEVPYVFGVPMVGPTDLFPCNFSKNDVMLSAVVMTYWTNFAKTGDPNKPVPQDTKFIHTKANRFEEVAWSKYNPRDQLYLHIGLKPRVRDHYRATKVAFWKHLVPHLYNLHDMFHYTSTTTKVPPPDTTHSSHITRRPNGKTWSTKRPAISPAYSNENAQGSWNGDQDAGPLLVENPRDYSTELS
full-length neuroligin 2 (NL2), mouse, without the splice insert at site A, sequence (Q69ZK9 other isoform, or with tags, fused parts or gaps): as the sequence (Q69ZK9 other isoform, or with tags, fused parts or gaps) above
Neuroligin 2, sequence (Q8NFZ4 15-677): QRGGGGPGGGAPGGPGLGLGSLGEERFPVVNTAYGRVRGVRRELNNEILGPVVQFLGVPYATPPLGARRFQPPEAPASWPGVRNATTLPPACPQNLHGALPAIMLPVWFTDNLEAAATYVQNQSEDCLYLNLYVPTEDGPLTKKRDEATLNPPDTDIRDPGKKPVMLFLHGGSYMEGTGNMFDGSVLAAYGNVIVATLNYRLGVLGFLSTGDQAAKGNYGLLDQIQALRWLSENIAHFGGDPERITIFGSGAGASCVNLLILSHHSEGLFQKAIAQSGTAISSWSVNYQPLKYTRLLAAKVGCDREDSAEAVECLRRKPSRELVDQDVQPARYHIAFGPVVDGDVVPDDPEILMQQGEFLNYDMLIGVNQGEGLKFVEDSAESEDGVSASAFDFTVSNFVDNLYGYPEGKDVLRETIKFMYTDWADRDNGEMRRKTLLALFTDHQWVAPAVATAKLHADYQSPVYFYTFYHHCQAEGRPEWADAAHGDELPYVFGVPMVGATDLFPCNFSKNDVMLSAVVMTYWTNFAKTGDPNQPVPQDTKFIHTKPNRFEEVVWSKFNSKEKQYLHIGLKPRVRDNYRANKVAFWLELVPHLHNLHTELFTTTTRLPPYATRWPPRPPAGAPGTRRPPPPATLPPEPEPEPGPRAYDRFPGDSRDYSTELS
Neuroligin 1 ECD, sequence (Q8N2Q7 46-717): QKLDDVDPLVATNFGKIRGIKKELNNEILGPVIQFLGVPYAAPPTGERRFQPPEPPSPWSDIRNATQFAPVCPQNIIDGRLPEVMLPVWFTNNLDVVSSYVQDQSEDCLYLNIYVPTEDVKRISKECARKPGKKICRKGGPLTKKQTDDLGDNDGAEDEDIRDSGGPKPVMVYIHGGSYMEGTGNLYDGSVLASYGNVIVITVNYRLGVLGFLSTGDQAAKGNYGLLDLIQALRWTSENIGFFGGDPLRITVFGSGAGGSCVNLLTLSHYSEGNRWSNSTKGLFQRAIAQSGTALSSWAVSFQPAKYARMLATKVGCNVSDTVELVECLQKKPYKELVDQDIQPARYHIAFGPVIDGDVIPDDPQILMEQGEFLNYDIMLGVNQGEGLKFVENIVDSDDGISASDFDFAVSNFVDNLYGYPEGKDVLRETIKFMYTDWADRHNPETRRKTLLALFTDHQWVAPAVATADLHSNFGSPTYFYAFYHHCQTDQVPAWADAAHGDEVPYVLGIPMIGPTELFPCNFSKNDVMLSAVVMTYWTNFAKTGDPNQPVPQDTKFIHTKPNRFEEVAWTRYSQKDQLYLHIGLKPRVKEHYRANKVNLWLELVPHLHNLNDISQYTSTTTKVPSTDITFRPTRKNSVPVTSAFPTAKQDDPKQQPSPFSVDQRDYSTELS

Consider “NL2 H279Y G282K mutant (from UniProt Q69ZK9 170-836) (receptor)”, for which the fold increase of affinity against wild-type NL2 in assay [1] is 30 fold.

With Neuroligin 1 ECD (from UniProt Q8N2Q7), the Kd in the assay with Neurexin β1 ECD [2] is 0.01 µM.

For the substance Neuroligin 2 (from UniProt Q8NFZ4), in the assay with Neurexin β1 [3], the Kd is 10 µM.

Turning to Neuroligin 3 (from UniProt Q9NZ94), the Kd in the assay with Neurexin β1 [4] was 1 µM.

On to Neuroligin 4 ECD (from UniProt Q8N0W4), for which, in the assay with Neurexin β1 ECD [5], the Kd was 0.1 µM.

Take “full-length neurexin β1 (NRXβ1), mouse, without the insert at splice site 4 (from UniProt P0DI97 47-468) (receptor)”: the fraction of vesicles colocalised is 0.6 in assay [6] and over 0.5 in assay [7]. Besides, the stoichiometry N (NRXβ1 per NL2 dimer) in assay [8] was 2 and 1.

Take “full-length neuroligin 2 (NL2), mouse, without the splice insert at site A (from UniProt Q69ZK9 15-836) (receptor)”: the Kd in assay [1] came out at 6 µM.
